Data: patent US20220125947A1

Columns and labels:
[1] = molecular target: Vg5/Vd2 T cell receptor expressed on SKW3 cells (UniProt A0JD36); assay: flow cytometry, dose-response binding at 37 C, SKW3 cells expressing Vg5/Vd2
[2] = molecular target: Vg9/Vd1 T cell receptor expressed on SKW3 cells (UniProt Q99603); assay: flow cytometry, dose-response binding at 37 C, SKW3 cells expressing Vg9/Vd1
[3] = molecular target: Vg9/Vd2 T cell receptor expressed on SKW3_4 cells (UniProt Q99603); assay: flow cytometry, dose-response binding at 37 C, SKW3_4 cells expressing Vg9/Vd2
[4] = molecular target: Vg5/Vd2 T cell receptor on SKW3 cells (UniProt A0JD36); assay: flow cytometry, DRC binding at 37°C on SKW3 cells expressing Vg5/Vd2
[5] = molecular target: Vg9/Vd1 T cell receptor on SKW3 cells (UniProt Q99603); assay: flow cytometry, DRC binding at 37°C on SKW3 cells expressing Vg9/Vd1
[6] = molecular target: Vg9/Vd2 T cell receptor on SKW3_4 cells (UniProt Q99603); assay: flow cytometry, DRC binding at 37°C on SKW3_4 cells expressing Vg9/Vd2
Sequence of Vg9/Vd2 T cell receptor on SKW3_4 cells (Q99603 21-122, chain 1 of 2): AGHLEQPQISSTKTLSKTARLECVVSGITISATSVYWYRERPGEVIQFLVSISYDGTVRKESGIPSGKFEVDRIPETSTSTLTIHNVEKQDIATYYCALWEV
Sequence of Vg9/Vd2 T cell receptor on SKW3_4 cells (A0JD36 20-115, chain 2 of 2, further chain): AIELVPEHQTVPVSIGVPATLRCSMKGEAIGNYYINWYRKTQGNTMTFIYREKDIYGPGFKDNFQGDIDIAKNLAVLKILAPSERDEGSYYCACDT

Sequence of Vg9/Vd2 T cell receptor expressed on SKW3_4 cells (Q99603 21-122, chain 1 of 2): as the sequence (Q99603 21-122, chain 1 of 2) above
Sequence of Vg9/Vd2 T cell receptor expressed on SKW3_4 cells (A0JD36 20-115, chain 2 of 2, further chain): as the sequence (A0JD36 20-115, chain 2 of 2, further chain) above
Sequence of Vg9/Vd1 T cell receptor expressed on SKW3 cells (Q99603 21-122): as the sequence (Q99603 21-122, chain 1 of 2) above
Sequence of Vg9/Vd1 T cell receptor on SKW3 cells (Q99603 21-122): as the sequence (Q99603 21-122, chain 1 of 2) above
Sequence of Vg5/Vd2 T cell receptor expressed on SKW3 cells (A0JD36 20-115): as the sequence (A0JD36 20-115, chain 2 of 2, further chain) above
Sequence of Vg5/Vd2 T cell receptor on SKW3 cells (A0JD36 20-115): as the sequence (A0JD36 20-115, chain 2 of 2, further chain) above

Max. Activity (fold over background) [1]	Max. Activity (fold over background) [2]	Max. Activity (fold over background) [3]	Max. Activity (fold over background) [4]	Max. Activity (fold over background) [5]	Max. Activity (fold over background) [6]	Binder
48.9	10.6	57.2				VG9B163 (antibody, human IgG1, lambda, V domains shown) VH: QVQLVQSGGGLVKPGASLKLSCAASGFTFSNHGMSWVRQTSDKRLEWVASITRGGDTTYYPDNVKGRFTISRENAKNTLYLQMSSLKSDDTALYYCTRGPLTVGYAMDYWGQGTTVTVSS VL: QLVLTQPPSVSAAPGQKVTISCSGNSSNIGHNYVSWYQQLPGTAPKLLIYDNNQRPSGIPDRFSGSKSDTSATLGITGLQTGDEADYYCGIWDSSLSIVVFGGGTKVTVLG
237	1.79	96.4				VG9B103 (antibody, human IgG1, kappa, V domains shown) VH: EVQLVQSGAEVKKPGSSVKVSCKTSGGTFSSYAISWVRQAPGQGLEWMGGIIPIFGTATYAQKFQDRVTITADKSTSTAYMELSSLRSEDTAVFYCARGVGWGTDYYYGLDVWGQGTTVTVSS VL: ETTLTQSPLSSPVTLGQPASISCRSSQGLVHSDGNTYLSWLQQRPGQSPRLLIYKISNRFSGVPDRFSGSGAGTDFTLKISRVEAEDVGVYYCMQATHHPLTFGGGTKVEIKR
233	11.6	164				VG9B380 (antibody, human IgG1, lambda, V domains shown) VH: QVQLQESGPGLVKPSETLSLTCTVSGGSISNYYWSWIRQPAGKGLEWIGRIYPSGITSYDPSLKSRVTMSLDTSKNQFSLKLTSVTAADTAVYYCAGIMGTKGAFDIWGQGTMVTVSS VL: QSALTQPASVSGSPGQSITISCTGTSSDVGGYNYVSWYQQHPGKAPKLLIYEVSNRPSGVSNRFSGSKSGSTASLTISGLQAEDEADYYCSSYTSTSVVFGGGTKLTVLG
51.6	1.4	139				VG9B87 (antibody, human IgG1, kappa, V domains shown) VH: QVQLVESGAEVKKPGASVKVSCKASGYTFTSEYIHWVRQAPGQGLEWMGIINPSGGSTSYAQRFQGRVTMTRDTSTSTVYMEVNSLRSEDTAVYYCARERGYSYGSFDYWGQGTLVTVSS VL: EIVLTQSPSFLSASAGDRVTITCRASQGISSYLAWYQQKPEKAPKLLIYAASTLQSGVPSRFSGSGSGTEFTLTISSLQPEDFATYYCQQFNSYSLTFGGGTKLEIKR
193	1.28	161				VG9B177 (antibody, human IgG1, lambda, V domains shown) VH: QVQLQESGPGLVKPSETLSLTCTVSGGSINNYFWSWIRQPPGKGLEWIGYIFYSGSTNYNPSLKSRVTISIDTSKNQFSLKVNSVTAADTAVYYCARVGKWELRTAFDIWGQGTMVTVSS VL: QSALTQPASVSGSPGQSITISCTGTSSDVADYNYVSWYQQHPGKAPKLMIYEVSNRPSGVSNRFSGSKSGNTASLTISGLQAEDEADYYCCSYTSSFTVVFGGGTKVTVLG
			284	1.36	184	VG9B383 (antibody, human IgG1, lambda, V domains shown) VH: QVQLQESGPGLVKPSETLSLTCTVSSGSISSYYWNWIRQPAGKGLEWVGRIYTIGNTNYNPSLKSRVTMSIDTSKNQFSLNLSSVTAADTAVYFCAREGYYDSSGSFFPGAFGIWGQGTMVTVSS VL: SSELTQPASVSGSPGQSITISCTGTSNDVGSYNLVSWYQQHPGKAPKLMIYAGSKRPSGISNRFSGSKSGNTASLTISGLQAEDEADYYCCSFAGATNVVFGGGTKLTVLG
			2.76	24.9	19.1	VG9B411 (antibody, human IgG1, kappa, V domains shown) VH: EVQLVESGGGLVKPGGSLRLSCSASGFTFSNYDMNWVRQAPGKGLEWVSSISSSSSYIYYADSVKGRFTISRDNAKNSLYLQMNSLRAEDTAVYHCARDVGVTTDYYYYGMDVWGQGTTVTVSS VL: EIVMTQSPSSVSASVGDRVTITCRASQGINSWLAWYQQDPYKAPKLLIYAASTLQSGVPSRFGGRGSGTEFTLTISSLQPEDFAVYYCQQYNNWPRTFGQGTKVDIKR
			231	1.59	167	VG9B470 (antibody, human IgG1, kappa, V domains shown) VH: QVTLKESGPTLVKPTQTLTLTCTFSGFSLTTSGVGVGWIRQPPGKALEWLALILWNDHTIYSPSLKSRLTITKDTSKNQVVLTMTNMDPVDTAAYFCARDKWELRDAFDIWGQGTMVTVSS VL: EIVMTQSPSFLSASVGDRVTFTCRASQGISRYLAWYQQKPGRAPNLLIYVASTLQSGVPSRFSGSGSGTEFTLTISSLLPEDFATYYCQQLISYPYTFSQGTRLEIKR
			205	2.74	152	VG9B201 (antibody, human IgG1, lambda, V domains shown) VH: QVTLKESGPTLVKPTQTLTLTCTFSGFSLTTHGVGVGWIRQPPRKALEWLALIYWNADKHYSPSLKSRLTITKDTSKNQVVLTMTHMDPVDTATYYCAHEGDWGHYFDFWGQGTLVTVSS VL: QLVLTQPPSVSAAPGQKVTISCSGSSSNIGNNDVSWYQQLPGTAPKLLIYDNNRRPSGIPDRFSGSKSGTSATLGITGLQTGDEADYYCETWDSSLSAIWVFGGGTKVTVLG
69.8	1.59	30.5				VG9B147 (antibody, human IgG1, lambda, V domains shown) VH: QVQLQESGPGLVNPSETLSLTCTVSGGSISGYFWNWIRQPPGKGLEWIGYIFYSGSTNYNPSLKSRVTISVDTSKNQFSLKLSSVTAADTAIYYCAREGKWELRSTFDIWGQGTMVTVSS VL: SSELTQDPAVSVALGQTVRITCQGDSLRSYYATWYQQKPGQAPILVIYGENNRPSGIPDRFSGSRSGNTASLTITGAQAEDEADYYCNSRDTGDHHLVFGGGTKLTVLG
			222	2.19	155	VG9B396 (antibody, human IgG1, lambda, V domains shown) VH: EVQLVESGPGLVQPSETLSLTCTVSGDSIRGYYWNWIRQPAGKGLEWIGRIFTTGNTNYNPSLKSRLTMSLDTSKNQFSLKLNSVTAADTAVYYCAREKWDSSSSALYFDFWGQGTLVTVSS VL: QSVLTQAPSVSGAPGQRVTISCTGSSSNIGADYDVKWYQQLPGTAPKLLIYGNTDRPSGVPDRFSGSKSGTSASLAITGLQAEDEADYYCQSYDSRLTGYVVFGGGTKLTVLG
			275	1.04	177	VG9B382 (antibody, human IgG1, lambda, V domains shown) VH: QVQLQESGPGLVKPSETLSLTCTVSGDSISGYYWNYIRQPAGKGLDWIGRIFTTGNTNYNPSLKSRVTMSVDTSKNQFSLKLTSVTAADTAVYYCARERWDSSSSALYFDYWGQGTLVTVSS VL: QSVLTQPPSVSGAPGQRVTISCTGSSSNIGADYDIKWYQQLPGTAPKLLIYGNSNRPSGVPDRFSGSKSGTSVSLAITGLQAEDEADYYCQSYDSSMSGYVVFGGGTKLTVLG
203	2.15	177				VG9B208 (antibody, human IgG1, lambda, V domains shown) VH: QVQLQESGPGLVKPSETLSLTCTVSGGSISGYYWSWIRQPPGKGLELIGYIFYSGSINYNPSLKNRVTISLDTSKNQFSLKLTSVTAADTAVYYCARVGKWELRSSFDIWGQGTMVTVSS VL: QSVLTQPPSVSAAPGQKVTISCSGSTSNIGNNDVSWYQQLPGTAPKLLIYDNNKRPSGIPDRFSGSKSGTSATLGITGLQTGDEADYYCGTWDSSLSVWVFGGGTKLTVLG
194	1.3	143				VG9B203 (antibody, human IgG1, lambda, V domains shown) VH: QVQLVQSGPGLVKPSETLSLTCTVSGDSIGHYYWNWIRQPAGKGLEWIGRIYTSGSTNYNPSLKSRVTMSVDTSKNQFSLKLSSVTAADTAVYYCARSGGNFYWYFDLWGRGTLVTVSS VL: QSVLTQPPSVSAAPGQKVTISCSGSSSNIGNNYVSWYQQVPGTAPKLLIYDNNKRPSGIPDRISGSKSGTSATLGITGLQTGDEADYYCGTWDSSLSAGVFGGGTKVTVLG
226	8.38	176				VG9B114 (antibody, human IgG1, kappa, V domains shown) VH: EVQLVESGGDLVQPGGSLRLSCAASGFTFSRYDMHWVRQATGKGLEWVSAIGSAGDTYYPGSVKGRFTISRENAKNSLYLQMNSLRAGDTAVYYCARGKWELRDAFDIWGQGTMVTVSS VL: DIVMTQSPSFLSASVGDRVTITCRASQGIHSYLAWYQQKPGKAPKLLIYVASTLQSGVPSRFSGSRSGTEFTLTISSLQPEDFATYYCQQLNSYPYTFGQGTKLEIKR
77	1.17	42.2				VG9B81 (antibody, human IgG1, kappa, V domains shown) VH: QVQLQESGPGLVKPSETLSLTCSVSGGSINTYYWSWFRQPAGKGLELIGRIYTSDNTNYNPSLKSRVTMSVDTSKNQFSLKLSSVTAADTAVYYCARYNWNYWYFDLWGRGTLVTVSS VL: DIQMTQSPSFLSASVRDRVNITCRASQGISSYLAWYQQKPGKAPKLLIYTASTLQSGVPSRFSGSGSGTEFTLTISSLQPEDFATYYCQHLNSYPYTFGQGTKVEIKR
171	1.02	127				VG9B372 (antibody, human IgG1, kappa, V domains shown) VH: QVQLQESGPGLVKPSQTLSLTCTVSGGSISNGGFYWSWIRQHPGKGLEWLGYINYSGSTYYNPSLESRGTISLDTSKNQFSLKLRSVTAADTAVYYCARDRNYEWNFDLWGRGTLVTVSS VL: EIVMTQSPATLSLSPGEGATLSCRASQSVSSYLAWYQQKPGQAPRLLVYDASNRATGIPARFSGSGSGTAFTLTITSLEPEDFVVYYCQQRSNWPLTFGGGTKLEIKR
